Test [1] deals with human PD-1 on human T cells or Jurkat T cells (human).
Test [2] shares this target. This is another data set of the same source.
Test [3] shares this target. This is another data set of the same source.
The target of test [4] is human PD-1 gamma 2a fusion protein (human PD-1 extracellular region fused to murine Ig gamma2a hinge-CH2-CH3) (human; murine) [IgG part: P01863]. Nature of the test: ELISA: biotinylated PD-L1Fc on immobilized human PD-1Fc, streptavidin-HRP.
Test [5] has as its target PD-1 on T cells (species not stated in these experiments).
Test [6] shares this target. The source holds these as a separate data set.
Test [7] shares this target. The source holds these as a separate data set.
For test [8], the target named is murine PD-1 on mouse T cells (Balb/c LN T cells, DO11.10 CD4+ T cells, TCR transgenic LN T cells) (murine) (UniProt Q02242).

We go through 3 substances from US7029674B2.

Regarding “human PD-L1.Ig (extracellular region of human PD-L1 fused to murine Ig gamma2a hinge-CH2-CH3) (from UniProt P01863) (Fc fusion)”, in test [1], the proliferation (3H-thymidine) of human CD4+ T cells, 96 hours came to 69 % decrease. This substance gave a proliferation of human CD4+ T cells, suboptimal anti-CD3 (1 µg/ml) with soluble anti-CD28 in test [2] of 80 % reduction. In test [3], the IL-10 secretion (ELISA) by human CD4+ T cells is 60 % decrease and the interferon-γ secretion (ELISA) by human CD4+ T cells came to 80 % decrease. The substance also returned an ED50 in test [4] of 0.108 µg/mL.
In test [5], “PD-L1.Fc (species not stated in these experiments) (Fc fusion)” showed a % CD69+ T cells (flow cytometry), 72 hours of 42 % CD69+. The % IL-2R+ (CD25) T cells (flow cytometry), 79 hours in test [6] stood at 15 % IL-2R+. This substance showed a % apoptotic T cells (propidium iodide and annexin positive), 72 hours in test [7] of 12 % apoptotic.
mPD-L1.Fc fusion protein yielded a percentage of dividing cells by propidium iodide staining (DNA content), day 4 (% dividing cells) in test [8] of 11.
